The assay deals with T1, peptide consisting of amino acid residues 44-72 of the human eIF5A protein (human, UniProt P63241 44-72).
T1 construct: range 44-72; also called human eIF5A (44-72) peptide
Put plainly: ELISA, screening of hybridoma antibodies on the peptide. For orientation: ELISA stands for enzyme-linked immunosorbent assay.

T1 sequence (P63241 44-72 limits assumed): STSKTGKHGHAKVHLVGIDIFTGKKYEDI

B1: anti-ORAIP antibody (clone YSP5-45-36) (antibody, V domains shown)
VH: EVKLVESGGGLVQPGGSLRLSCATSGFTFTDYYMSWARQPPGKALEWLGFIRNKANGYTTEYSASVKGRFTISRDNSLGILYLQMNTLRPEDSATYYCARNYYGTSFSWFAYWGQGTLVTVSA
VL: MTQTPLSLSVSLGDQASISCRSSQSIVHFNGNTYLEWYLQKPGQSPKLLIYKVSSRFSGVPDRFSGSGSGTDFTLKISRVEAEDLGVYYCFQGSHVPPTFGGGTKLEIK
notes: Mouse monoclonal antibody from a hybridoma (mouse IgG H and L chain primers were used for cloning); also called neutralizing antibody against secretory eIF5A
As to B1, the binding result is listed as “binds”.

(Values after patent WO2020241660A1 (dated 2020).)
